Substrate in series [1]: BHET
The series is described as follows: Proxy for plastic degradation [Released monomer concentration (HPLC/LC-MS) (TPA+MHET)].

Substrate in series [2]: PET
Description: Proxy for plastic degradation [Released monomer concentration (HPLC/LC-MS) (MHET+TPA)]. The conditions noted are these: pH 9.

Substrate in series [3]: PET
Description: Proxy for plastic degradation [Released monomer concentration (HPLC/LC-MS) (Not Mentioned)]. The conditions noted are these: pH 9.

3 proteins from the PETadex activity labels (doi:10.3390/molecules28083528) can be followed below.

Where a chain is given by its changes, count along the chain named.

B1: unnamed (protein)
chain: MAVGSMLLSMAAQAQVVVFEETFSTGLGKFTAAGSVVTSSGAARLDGCYGCTDGSITSTAISTVDFTGLRLSFDRVTSGLDSGEAGIAEFSTNGSTYTAVESIRTASGRVTFNLPTSAENQSGLRLRFRINASLSSETYTVDNIRLEGTSGSGGGTTNPFEKGPDPTKTMLEASTGPFTYTTTTVSSTTASGYRQGTIYHCTNVTGPFAAVAVVPGYLASQSSINWWGPRLASHGFVVITIDTNSTSDQPPSRATQLMAALNQLKTFSNTSSHPIYRKVDPNRLGVMGWSMGGGGTLIAARDNPTLKAAIPFAPWNSSTNFSTVSVPTLIIACESDSTAPVNSHASPFYNSLPSTTKKAYLEMNNGSHSCANSGNSNAGLIGKYGVSWMKCFMDNDTRFSPYLCGAPHQADLSLTAIDEYRENCPY
As for B1, the “Proxy for plastic degradation” value in series [1] (pH 7, 30 °C) was 19.1 µM; in series [1] (pH 7, 40 °C), 19.5 µM; in series [1] (pH 7, 50 °C) it was 20.2 µM; in series [1] (pH 9, 30 °C), 19.6 µM; in series [1] (pH 9, 40 °C), 37.1 µM; in series [1] (pH 9, 50 °C), 55 µM. Besides, the “Proxy for plastic degradation” value in series [2] (30 °C, 1 h) turned out to be 2.3 µM; in series [2] (30 °C, 2 h), 3.8 µM; in series [2] (30 °C, 3 h), 1.6 µM; in series [2] (30 °C, 4 h), 5.4 µM; in series [2] (30 °C, 5 h), 4.6 µM; in series [2] (30 °C, 6 h), 4.9 µM. Besides, the “Proxy for plastic degradation” value was determined as 0.84 µM in series [2] (40 °C, 1 h); 3 µM in series [2] (40 °C, 2 h); 4.3 µM in series [2] (40 °C, 3 h); 8.2 µM in series [2] (40 °C, 4 h); 8 µM in series [2] (40 °C, 5 h); 9.8 µM in series [2] (40 °C, 6 h). Also, the “Proxy for plastic degradation” value amounted to 2.3 µM in series [3] (1 h); 3.8 µM in series [3] (2 h); 1.6 µM in series [3] (3 h); 5.4 µM in series [3] (4 h); 4.6 µM in series [3] (5 h); 4.9 µM in series [3] (6 h).

B2: unnamed (protein)
chain: B1 chain with C201P, N364C, C391R, D411C
As to B2, the “Proxy for plastic degradation” value in series [1] (pH 7, 30 °C) stood at 28.8 µM; in series [1] (pH 7, 40 °C), 31.2 µM; in series [1] (pH 7, 50 °C) it was 37.6 µM; in series [1] (pH 9, 30 °C), 28.9 µM; in series [1] (pH 9, 40 °C) it was 43.2 µM; in series [1] (pH 9, 50 °C), 66.1 µM. Besides, the “Proxy for plastic degradation” value worked out at 12.1 µM in series [2] (30 °C, 1 h); 22.4 µM in series [2] (30 °C, 2 h); 33.3 µM in series [2] (30 °C, 3 h); 44.1 µM in series [2] (30 °C, 4 h); 64.8 µM in series [2] (30 °C, 5 h); 72.1 µM in series [2] (30 °C, 6 h). The “Proxy for plastic degradation” value is 24.3 µM in series [2] (40 °C, 1 h); 43.4 µM in series [2] (40 °C, 2 h); 59.5 µM in series [2] (40 °C, 3 h); 58 µM in series [2] (40 °C, 4 h); 101 µM in series [2] (40 °C, 5 h); 104 µM in series [2] (40 °C, 6 h).

B3: unnamed (protein)
chain: B1 chain with C201P, C391R
Consider B3, for which the “Proxy for plastic degradation” value in series [3] (1 h) worked out at 6 µM; in series [3] (2 h) it was 8.6 µM; in series [3] (3 h), 12.8 µM; in series [3] (4 h) it was 11.8 µM; in series [3] (5 h), 14.5 µM; in series [3] (6 h) it was 15 µM.
